From patent US20250381281A1, “METHODS OF MANUFACTURING PEPTIDE-BASED VACCINES” (priority 2018, published 2025)
Non-standard residues stand in square brackets, D forms with d. Primed or numbered codes have the meaning given here. No end group written: not given here. Lys(N3)′ = its azide, alkyne or alkene has reacted where a group follows in round brackets; DBCO′ = not defined here; F′ = aminophenylalanine; Ahx = NCCCCCC(=O)O

How the values were obtained:
CD8 T cell responses [1] = assay: CD8 T cell response of mice vaccinated with Adpgk peptide antigen conjugates, intracellular cytokine staining for IFN-g; assay type: in vivo, C57BL/6 mice; conditions: SC route; vaccinated day 0, 14, 28; whole blood
Protocol: Mice were vaccinated on day 0, 14, and 28. CD8 T cell responses were measured on day 12, 21, and 35 from whole blood using an intracellular cytokine staining assay for IFN-g production;

CD8 T cell responses [2] = assay: CD8 T cell response of mice vaccinated with Cpne1 peptide antigen conjugates, intracellular cytokine staining for IFN-g; assay type: in vivo, C57BL/6 mice; conditions: SC route; vaccinated day 0, 14, 28; whole blood
Protocol: Mice were vaccinated on day 0, 14, and 28. CD8 T cell responses were measured on day 7, 21, 35, and 42 from whole blood using an intracellular cytokine staining assay for IFN-g production; and
To evaluate the suitability of immunogenic compositions based on peptide antigen fragments comprising aryl amines, mice were either vaccinated with peptide antigen conjugates of formula C-B1-A-B2-L-H, either comprising a charged moiety with positive charge, […] Tyr-Ser-Pro-Val-Cit-Lys(N3-DBCO)-Glu(2B)-Trp-Glu(2B)-Trp-Glu(2B)—NH2 (SEQ ID NO: 76) or a charged moiety with negative charge and a B2 comprised of amino acids bearing aryl amines, i.e., Ac-Glu-Glu-Glu-Glu-Glu-Val-Cit-[…]Try-[…]Cit-Phe(NH2)-Phe(NH2)-Phe(NH2)-Phe(NH2)-Lys(N3-DBCO)-Glu(2B)-Trp-Glu(2B)-Trp-Glu(2B)—NH2 (SEQ ID NO: 42), wherein Phe(NH2) is para-amino-phenylalanine.

[3] = Particle size and stability of amphiphilic carrier molecules by dynamic light scattering; assay type: physicochemical; conditions: PBS pH 7.4, 0.5 mg/mL, peptide-based linear carriers
Protocol: This reaction scheme was used to prepare different compositions of amphiphilic carrier molecules that were characterized for the capacity to form stable nanoparticle micelles in aqueous buffer, PBS pH 7.4, at a concentration of 0.5 mg/mL of amphiphilic carrier molecule. The results of these studies are summarized below according to the chemical composition and architecture of the amphiphilic carrier molecule.
A series of linear amphiphilic carriers of formula C-B-L-H, wherein the charged moiety (C) and spacer (B) comprises peptides, i.e., poly(lysine) and poly(serine-co-glycine), respectively, with varying hydrophobic block composition were evaluated for particle size and stability by dynamic light scattering. […]

| Substance | Size (diameter, nm) [3] [nm] | other results |
| --- | --- | --- |
| Ac-Glu-Glu-Glu-Glu-Glu-Glu-Glu-Val-Cit-Gly-Ile-Pro-Val-His-Leu-Glu-Leu-Ala-Ser-Met-Thr-Asn-Met-Glu-Leu-Met-Ser-Ser-Ile-Val- His-Gln-Gln-Val-Phe-Pro-Thr-Ser-Pro-Val-Cit-Phe(NH2)-Phe(NH2)-Phe(NH2)-Phe(NH2)-Lys(N3-DBCO)-Glu(2B)-Trp-Glu(2B)-Trp-Glu(2B)—NH2 (EEEEEEEVXGIPVHLELASMTNMELMSSIVHQQVFPTSPVXXXXXX; N-acetyl, citrulline, Phe(NH2), DBCO click, Glu(2B), amide; SITE 1 Wherein Glu is modified with an acetyl group at the N-terminus; SITE 9 citrulline (Cit); SITE 41 citrulline (Cit); SITE 42..45 para-amino-phenylalanine; SITE 46 azido-lysine (Lys(N3))) [SEQ ID NO: 40] |  | CD8 T cell responses (CD8 T cell responses [1]): CD8 T cell responses were induced in all animals |
| Ac-Glu-Glu-Glu-Glu-Glu-Val-Cit-Asp-Phe-Thr-Gly-Ser-Asn-Gly-Asp-Pro-Ser-Ser-Pro-Try-Ser-Leu-His-Tyr-Leu-Ser-Pro-Thr-Gly-Val-Asn-Glu-Tyr-Ser-Pro-Val-Cit-Phe(NH2)-Phe(NH2)-Phe(NH2)-Phe(NH2)-Lys(N3-DBCO)-Glu(2B)-Trp-Glu(2B)-Trp-Glu(2B)—NH2 (EEEEEVXDFTGSNGDPSSPYSLHYLSPTGVNEYSPVXXXXXX; acetyl, citrulline, DBCO click conjugate, amidated; SITE 1 Wherein Glu is modified with an acetyl group at the N-terminus; SITE 7 citrulline (Cit); SITE 37 citrulline (Cit); SITE 38..41 para-amino-phenylalanine.; SITE 42 azido-lysine (Lys(N3))) [SEQ ID NO: 42, negatively charged Cpne1 peptide antigen conjugate] |  | CD8 T cell responses detected in vaccinated animals (CD8 T cell responses [2]): detected in all vaccinated animals; CD8 T cell responses, tris salts of the negatively charged conjugate (CD8 T cell responses [2]): CD8 T cell responses were induced in all animals |
| KKK-SGSGSGSGSGSGSGSGSGSGSGSG-(Lys(N3-DBCO))-Ahx-(F′)5: peptide-based linear amphiphilic carrier molecule C-B-L-H (chain 1 KKKSGSGSGSGSGSGSGSGSGSGSGSG[Lys(N3)′](DBCO′)[Ahx]; chain 2 [F′][F′][F′][F′][F′]; also: chain 2 (F′)5 follows Ahx of chain 1) | 1013 |  |
| KKK-SGSGSGSGSGSGSGSGSGSGSGSG-(Lys(N3-DBCO))-Ahx-(F′)10: peptide-based linear amphiphilic carrier molecule C-B-L-H (chain 1 KKKSGSGSGSGSGSGSGSGSGSGSGSG[Lys(N3)′](DBCO′)[Ahx]; chain 2 [F′][F′][F′][F′][F′][F′][F′][F′][F′][F′]; also: chain 2 (F′)10 follows Ahx of chain 1) | 3839 |  |
| KKK-SGSGSGSGSGSGSGSGSGSGSGSG-(Lys(N3-DBCO))-Ahx-(F′)20: peptide-based linear amphiphilic carrier molecule C-B-L-H (chain 1 KKKSGSGSGSGSGSGSGSGSGSGSGSG[Lys(N3)′](DBCO′)[Ahx]; chain 2 [F′][F′][F′][F′][F′][F′][F′][F′][F′][F′][F′][F′][F′][F′][F′][F′][F′][F′][F′][F′]; also: chain 2 (F′)20 follows Ahx of chain 1) | 1521 |  |
| KKK-SGSGSGSGSGSGSGSGSGSGSGSG-(Lys(N3-DBCO))-Bis(Ahx-F′10)2: peptide-based linear amphiphilic carrier molecule C-B-L-H (chain 1 KKKSGSGSGSGSGSGSGSGSGSGSGSG[Lys(N3)′](DBCO′)[Ahx]; chain 2 [F′][F′][F′][F′][F′][F′][F′][F′][F′][F′]; also: two Ahx-F′10 arms, branching not given here, one arm shown) | 2683 |  |
| KKKKKKK-SGSGSGSGSGSGSGSGSGSGSGSG-(Lys(N3-DBCO))-Ahx-(F′)5: peptide-based linear amphiphilic carrier molecule C-B-L-H | 477 |  |
| KKKKKKK-SGSGSGSGSGSGSGSGSGSGSGSG-(Lys(N3-DBCO))-Ahx-(F′)20: peptide-based linear amphiphilic carrier molecule C-B-L-H | 32 |  |
| Lys-Lys-Lys-Lys-Lys-Lys-Lys-Lys-Lys-Val-Arg-Asp-Phe-Thr-Gly-Ser-Asn-Gly-Asp-Pro-Ser-Ser-Pro-Tyr-Ser-Leu-His-Tyr-Leu-Ser-Pro-Thr-Gly-Val-Asn-Glu- Tyr-Ser-Pro-Val-Cit-Lys(N3-DBCO)-Glu(2B)-Trp-Glu(2B)-Trp-Glu(2B)—NH2 (KKKKKKKKKVRDFTGSNGDPSSPYSLHYLSPTGVNEYSPVXX; citrulline, DBCO click conjugate, amidated; SITE 41 citrulline (Cit); SITE 42 azido-lysine (Lys(N3))) [SEQ ID NO: 76, positively charged Cpne1 peptide antigen conjugate] |  | CD8 T cell responses detected in vaccinated animals (CD8 T cell responses [2]): detected in all vaccinated animals |
